Experiments:
[1] = biological target: T1, N-terminal cleavage product of CLCA1 (NTP) (human, UniProt A8K7I4 22-694, N-glycans at Asn503 and Asn585); assay: cryo-EM structure
T1 sequence (looked up): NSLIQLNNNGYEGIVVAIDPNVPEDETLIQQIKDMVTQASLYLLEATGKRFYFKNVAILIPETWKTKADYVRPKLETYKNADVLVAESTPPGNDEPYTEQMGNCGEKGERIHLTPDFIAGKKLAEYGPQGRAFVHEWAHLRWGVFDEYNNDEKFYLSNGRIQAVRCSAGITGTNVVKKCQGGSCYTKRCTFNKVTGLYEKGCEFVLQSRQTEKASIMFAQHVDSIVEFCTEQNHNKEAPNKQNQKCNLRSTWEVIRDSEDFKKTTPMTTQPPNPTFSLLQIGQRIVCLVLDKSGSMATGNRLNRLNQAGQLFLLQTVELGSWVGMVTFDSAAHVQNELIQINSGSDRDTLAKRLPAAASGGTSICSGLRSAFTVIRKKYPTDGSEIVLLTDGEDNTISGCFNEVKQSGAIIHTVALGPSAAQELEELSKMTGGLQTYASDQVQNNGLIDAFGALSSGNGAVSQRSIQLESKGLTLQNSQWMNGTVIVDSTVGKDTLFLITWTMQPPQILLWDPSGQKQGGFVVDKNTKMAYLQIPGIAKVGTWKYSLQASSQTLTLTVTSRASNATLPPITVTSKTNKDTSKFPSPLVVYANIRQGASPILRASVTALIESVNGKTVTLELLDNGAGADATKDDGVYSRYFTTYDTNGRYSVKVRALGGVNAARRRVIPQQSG

[2] = biological target: the molecule itself; assay: SDS-PAGE with or without DTT and Western blot

B1: C-terminal cleavage product of CLCA1 (CTP) (domain or fragment, human, UniProt A8K7I4 695-914, looked up)
chain: ALYIPGWIENDEIQWNPPRPEINKDDVQHKQVCFSRTSSGGSFVASDVPNAPIPDLFPPGQITDLKAEIHGGSLINLTWTAPGDDYDHGTAHKYIIRISTSILDLRDKFNESLQVNTTALIPKEANSEEVFLFKPENITFENGTDLFIAIQAVDKVDLKSEISNIARVSLFIPPQTPPETPSPDETSAPCPNIHINSTIPGIHILKIMWKWIGELQLSIA
modifications: N-glycans at Asn770, Asn804, Asn810, Asn831 and Asn836
B1: binds [1]; binds [2].

Source: publication doi:10.1101/2025.10.18.683246 (bioRxiv, 2025)
